B1: HL161AN variant No. 8 (LC:N25S, HC:C32S Q82E) (antibody, V domains shown)
VL: SYVLTQPPSVSVAPGQTARITCGGSNIGSTSVHWYQQKPGQAPVLVVHDDSDRPSGIPERFSGSNSGNTATLTISRVEAGDEADYYCQVRDSSSDHVIFGGGTKLTVLGQPKAAPSVTL
VH: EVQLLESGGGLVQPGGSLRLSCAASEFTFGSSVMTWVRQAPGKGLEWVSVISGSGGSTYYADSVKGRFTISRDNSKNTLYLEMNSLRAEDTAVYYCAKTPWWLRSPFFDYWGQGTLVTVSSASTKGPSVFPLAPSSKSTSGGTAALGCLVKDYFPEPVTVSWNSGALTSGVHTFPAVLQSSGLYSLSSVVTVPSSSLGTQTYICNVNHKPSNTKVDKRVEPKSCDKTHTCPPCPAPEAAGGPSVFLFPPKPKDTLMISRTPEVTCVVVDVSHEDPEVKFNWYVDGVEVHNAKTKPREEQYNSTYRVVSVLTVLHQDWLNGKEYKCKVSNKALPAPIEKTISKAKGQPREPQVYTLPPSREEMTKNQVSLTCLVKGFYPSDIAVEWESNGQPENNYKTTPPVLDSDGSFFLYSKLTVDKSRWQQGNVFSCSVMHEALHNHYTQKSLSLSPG
notes: also called HL161ANSE; copies: 2 + 2
B2: HL161AN variant No. 13 (LC:N25Q, HC:C32Y) (antibody, V domains shown)
VL: B1 VL with S25Q
VH: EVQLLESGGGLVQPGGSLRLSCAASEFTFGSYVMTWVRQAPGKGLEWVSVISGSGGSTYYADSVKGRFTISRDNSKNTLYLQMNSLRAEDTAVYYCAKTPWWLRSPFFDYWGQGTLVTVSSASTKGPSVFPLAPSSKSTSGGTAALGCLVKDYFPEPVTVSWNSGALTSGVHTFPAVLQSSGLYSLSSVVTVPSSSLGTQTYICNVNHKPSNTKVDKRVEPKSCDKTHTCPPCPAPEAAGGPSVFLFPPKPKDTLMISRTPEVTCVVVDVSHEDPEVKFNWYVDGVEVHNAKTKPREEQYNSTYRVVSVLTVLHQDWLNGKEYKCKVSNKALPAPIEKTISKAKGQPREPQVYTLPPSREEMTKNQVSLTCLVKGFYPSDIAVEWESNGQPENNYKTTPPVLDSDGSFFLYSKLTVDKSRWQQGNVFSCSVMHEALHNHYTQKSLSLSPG
notes: also called HL161ANQY; copies: 2 + 2
B3: HL161AN variant No. 22 (LC:N25Q, HC:C32Y Q82E) (antibody, V domains shown)
VL: B1 VL with S25Q
VH: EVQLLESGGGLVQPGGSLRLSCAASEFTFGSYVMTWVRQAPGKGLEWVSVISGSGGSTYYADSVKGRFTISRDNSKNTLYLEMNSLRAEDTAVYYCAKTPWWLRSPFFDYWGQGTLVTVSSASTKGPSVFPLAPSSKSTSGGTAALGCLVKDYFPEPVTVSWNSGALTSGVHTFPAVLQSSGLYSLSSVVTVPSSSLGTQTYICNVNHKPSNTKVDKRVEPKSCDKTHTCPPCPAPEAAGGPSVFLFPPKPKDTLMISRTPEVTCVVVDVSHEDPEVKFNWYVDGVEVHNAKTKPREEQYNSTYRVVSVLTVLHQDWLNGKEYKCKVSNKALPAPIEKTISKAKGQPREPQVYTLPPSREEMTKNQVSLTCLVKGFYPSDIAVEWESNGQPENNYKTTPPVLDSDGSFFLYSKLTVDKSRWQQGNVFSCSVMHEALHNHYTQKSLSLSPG
notes: also called HL161ANQYE; copies: 2 + 2

Changes are numbered by the printed parent chain. Names may count otherwise.

This note sets out measurements from US20230391876A1 (HANALL BIOPHARMA, published 2023).

T2 sequence (P55899 24-297 limits assumed, chain 1 of 2): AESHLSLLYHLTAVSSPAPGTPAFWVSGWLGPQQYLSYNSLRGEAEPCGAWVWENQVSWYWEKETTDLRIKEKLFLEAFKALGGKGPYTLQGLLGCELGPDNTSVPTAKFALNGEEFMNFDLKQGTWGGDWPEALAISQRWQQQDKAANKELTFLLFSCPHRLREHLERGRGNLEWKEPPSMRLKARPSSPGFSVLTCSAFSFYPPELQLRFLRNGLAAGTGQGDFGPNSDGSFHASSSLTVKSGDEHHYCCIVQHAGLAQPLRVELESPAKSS
T2 sequence (P61769 21-119 limits assumed, chain 2 of 2): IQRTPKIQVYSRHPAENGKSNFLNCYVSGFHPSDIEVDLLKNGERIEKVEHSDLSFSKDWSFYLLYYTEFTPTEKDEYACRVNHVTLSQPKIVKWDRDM

The target in one assay is T1, hFcRn on hFcRn-expressing HEK293 cells (human, UniProt P55899 24-365; P61769 21-119).
T1 construct: whole, on cells; also called hFcRn HEK293
T1 sequence (P55899 24-365 limits assumed, chain 1 of 2): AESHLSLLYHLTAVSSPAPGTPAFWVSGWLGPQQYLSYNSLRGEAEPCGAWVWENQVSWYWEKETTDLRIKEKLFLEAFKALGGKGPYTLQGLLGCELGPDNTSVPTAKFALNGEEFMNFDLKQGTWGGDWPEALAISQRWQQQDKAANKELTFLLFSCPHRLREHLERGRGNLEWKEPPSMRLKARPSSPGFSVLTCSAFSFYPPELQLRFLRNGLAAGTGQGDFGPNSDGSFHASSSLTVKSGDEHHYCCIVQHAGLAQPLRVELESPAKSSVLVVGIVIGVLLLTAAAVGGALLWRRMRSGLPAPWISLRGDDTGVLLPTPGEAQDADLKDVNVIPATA
T1 sequence (P61769 21-119 limits assumed, chain 2 of 2): as the sequence (P61769 21-119 limits assumed, chain 2 of 2) above
The assay is described as follows: FACS on hFcRn HEK293 cells, pH 6.0; head prints 'FACS binding (EC50, nM)', taken as blocking of competitor Alexa488-hIgG1 (Example 4.5). A general note: In flow cytometry, cells or beads pass a laser one at a time.
Method: (§1) 1×10⁷ hFcRn HEK293 cells were seeded into a T75 flask and cultured for 24 hours. After culturing, the cells were removed and placed in a 96 well plate at 1×10⁵ cells for each sample in duplicate. […] After the reaction was completed, it was centrifuged to remove the supernatant. 200 μL of the reaction buffer was added to resuspend the cell pellet, and then the MFI value was measured in a FACS instrument.
The term EC50 denotes the concentration that produces a half-maximal response. High values mean a need for much substance, low ones an effect from little substance. B1 returned a concentration giving a half-maximal response (EC50) of 1470 pM.
The same measure, in the same setting: the figure for B2 is 1380 pM; for B3 it is 1300 pM.

The next assay addresses T1, hFcRn on hFcRn-expressing HEK293 cells. The assay is described as follows: FACS on hFcRn HEK293 cells, 10 nM antibody, pH 7.4, high concentration sample.
Method: (§2) The analysis of hFcRn binding using FACS was carried out under two conditions of pH 6.0 and pH 7.4. hFcRn-expressing 1TEK293 (hFcRn HEK293) cells were diluted with the reaction buffer (0.0500 BSA in PBS, pH 6.0 or pH 7.4) and prepared in duplicate in a 96 well plate at 1×10⁵ cells for each sample. In addition, each antibody sample was diluted with the reaction buffer to 10 nM, and then put into a 96 well plate, and incubated at 4° C. for 90 minutes. Thereafter, the plate was centrifuged to remove the supernatant, and then Alexa488-goat anti-hIgG Ab (1:200) was added thereto, and again incubated at 4° C. for 90 minutes. After the reaction was completed, it was centrifuged to remove the supernatant, and 200 μL of the reaction buffer was added to resuspend the cell pellet, and then the MFI value was measured in a FACS instrument.
With B1, the MFI was 7060 MFI.
Same read-out and setting: the value for B2 was 7940 MFI.
Still for that read-out and setting: the figure for B3 is 7080 MFI.

For the next assay the target is unchanged. Put plainly: FACS on hFcRn HEK293 cells, 10 nM antibody, pH 7.4.
Method: as §2
B1 had an MFI of 6760 MFI.
B2 yielded an MFI of 6730 MFI.
Same read-out and setting: the figure for B3 is 5860 MFI.

A further assay shares this target. Put plainly: FACS on hFcRn HEK293 cells, pH 6.0, high concentration sample; head prints 'FACS binding (EC50, nM)', taken as blocking of competitor Alexa488-hIgG1 (Example 5.5).
Method: as §1
The evaluation of hFcRn blocking was performed at 0.1 nM, 1 nM, 10 nM, and 100 nM using FACS.
Molecule B1 came in with a 50% effective concentration (EC50) of 600 pM.
Regarding B2, the midpoint of the response, the EC50, lay at 660 pM. The EC50 values of the last two molecules are within 1.5-fold of each other.
Still for that read-out and setting: the figure for B3 is 710 pM.

A further assay concerns the target T2, shFcRn (soluble human FcRn) (human, UniProt P55899 24-297; P61769 21-119).
T2 construct: extracellular domain; Printed only as 'soluble human FcRn'; also called hFcRn (immobilized on a chip)
The assay is described as follows: SPR, hFcRn immobilized on chip, pH 7.4. (In general: SPR reads the build-up and loss of mass on a sensor chip optically.)
Method: (§3) Kinetic analysis was performed using a 1:1 Langmuir binding model, and the average KD value was obtained by repeating the analysis 6 times in each condition of pH 6.0 and pH 7.4.
(§4) Chip activation was performed under EDAC/NHS 0.5×, 30 μL/min, and 300 sec conditions. Thereafter, shFcRn was prepared at 2 μg/mL, 250 μL using an acetate buffer (pH 5.5), and immobilization was performed while flowing at 30 μL/min. The reaction was stopped when the immobilization level corresponded to 200 RU to 300 RU. Thereafter, deactivation was performed using ethanolamine at 30 μL/min, 300 sec. […] Sample dilution was performed using 1×PBST (pH 7.4) or 1×PBST (pH 6.0) buffer depending on the analysis pH. In the sample analysis conditions, association was carried out by reaction at 50 μL/min, 200 sec, and dissociation was carried out by reaction at 50 μL/min, 600 sec. Thereafter, reaction was carried out using a glycine buffer (pH 2.0) at 100 μL/min, 18 sec to perform regeneration. For kinetic analysis, samples were prepared and reacted once in three cells to which shFcRn was immobilized. Then three kinetic values were obtained, and then an average KD value was measured. When analyzing reaction signals, interspot-referencing and signals in which only buffer was analyzed were used for a double-referencing.
What is called Kd is the equilibrium constant for the complex coming apart. B1 showed a Kd of 280 pM.
On the same count and under the same terms, the figure for B2 is 320 pM.
Still for that read-out and setting: the value for B3 was 300 pM.

A further assay addresses T2, shFcRn (soluble human FcRn). Put plainly: SPR, hFcRn immobilized on chip, pH 6.0.
Method: as §3, §4
B1 showed an equilibrium dissociation constant (Kd) of 140 pM. That is a sub-nanomolar value.
Still for that read-out and setting: the value for B2 was 210 pM; that for B3 was 210 pM.

The target is the same in the next assay. Put plainly: SPR, shFcRn immobilized on chip, antibody as analyte, pH 7.4.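 Also: kinetics fitted with a 1:1 Langmuir model, association 200 s and dissociation 600 s in PBST, double-referenced against buffer-only and interspot signals, values averaged over repeated runs.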
Method: as §3, §4
The term koff denotes a measure of how fast the partners let go of each other. High values mean a short-lived complex, low ones a long-lived complex. As a reminder, the kon is the second-order rate constant of association. A higher kon goes with fast association. On to B1, for which binding was characterised by a dissociation constant (Kd) of 218 pM, the off-rate (koff) was 0.000496 s⁻¹ and the kon is 2.27e+06 M⁻¹ s⁻¹.
For B2, in that order: 236 pM, 0.000444 s⁻¹ and 1.88e+06 M⁻¹ s⁻¹.
For B3, in that order: 381 pM, 0.000647 s⁻¹ and 1.7e+06 M⁻¹ s⁻¹.

In a further assay the target is T1, hFcRn on hFcRn-expressing HEK293 cells. The assay is described as follows: FACS on hFcRn HEK293 cells, 10 nM antibody, pH 6.0, high concentration sample.
Method: as §2
As to B1, the MFI is 3130 MFI.
Same read-out and setting: the figure for B2 is 3330 MFI; for B3 it is 3020 MFI.

For another assay the target is unchanged. Put plainly: FACS on hFcRn HEK293 cells, 10 nM antibody, pH 6.0.
Method: as §2
As to B1, the MFI worked out at 2830 MFI.
On the same count and under the same terms, the value for B2 was 2600 MFI; that for B3 was 2390 MFI.

Another assay concerns the target T2, shFcRn (soluble human FcRn). The assay is described as follows: SPR, shFcRn immobilized on chip, antibody as analyte, pH 6.0.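 Also: kinetics fitted with a 1:1 Langmuir model, association 200 s and dissociation 600 s, samples diluted in PBST, double-referenced signals, values averaged across three shFcRn-coated cells.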
Method: as §3, §4
B1 had a Kd of 158 pM, a koff of 0.000477 s⁻¹ and a kon of 3.02e+06 M⁻¹ s⁻¹.
For B2, in that order: 200 pM, 0.000556 s⁻¹ and 2.77e+06 M⁻¹ s⁻¹.
Molecule B3 came in with an equilibrium dissociation constant (Kd) of 264 pM, a koff of 0.000522 s⁻¹ and a kon of 1.98e+06 M⁻¹ s⁻¹.
